According to article PMC11375898 (Frontiers in Pharmacology, 2024):
Like-named read-outs stand apart in the source and are kept apart here.

How the values were obtained:
[1] = in vivo
Experimental: The duration of each dose was 0.06 mg for three consecutive days, 0.1 mg for three consecutive days, 0.14 mg for five consecutive days, and 0.2 mg for five consecutive days (Figure 1).
Blood samples (3 mL) were collected in vacuum tubes containing EDTA-K2 at D-1 and at pre-dosing (0 h) and 5, 10, 15, 20, 25, 30, 40, 50, 60, 90, 120, 150 and 180 min after first administration on D6, D7, D11, D12, and D16. PK blood samples were collected at the time point corresponding to the administration date for blank baseline correction on D-1. The vacuum tubes were pre-cooled in the refrigerator (2°C–8°C) for at least 0.5–1 h before use. As the stabilizer, 30 μL DPP IV inhibitor (10 μL/mL) was immediately added into the blood. The stabilizer-spiked blood samples were kept with wet ice during transportation and were centrifuged at 3,000 rpm for 10 min at 4°C to separate the plasma. Samples were stored at −80°C until analysis.
The standard curve ranged from 2.0 to 100.0 pM. The accuracy of intra-batch and inter-batch assays values were −16.7%–20.0% and −6.7%–3.2%, respectively.
The primary PK parameters were maximum observed concentration (Cmax), the area under concentration-time curve from 0 to the last measurable concentration (AUC0-t) and AUC0-inf, whereas the secondary PK parameters were median time to reach maximum concentration (Tmax), terminal half-life time (t1/2), Vz/F, apparent clearance rate (CL/F), terminal elimination rate (λz) and accumulation index (Rac).
Paired t-tests were used to compare the primary PK parameters between the 0.14 mg and 0.2 mg dose groups. Three doses (0.1, 0.14 and 0.2 mg) were evaluated for proportional dose-response relationships using power model. […] Statistical analysis was performed using SAS 9.4 (SAS Institute, Cary, NC, United States).

[2] = tested on: adult subjects with overweight/obesity; assay: Safety assessment (adverse events, NCI CTCAE 5.0), phase I multiple ascending dose trial; conditions: N = 16
Experimental: (§1) This single center, open, multiple ascending dose study was conducted at the Phase I Clinical Research Center of the Affiliated Hospital of Qingdao University, Qingdao, China. […] The duration of each dose was 0.06 mg for three consecutive days, 0.1 mg for three consecutive days, 0.14 mg for five consecutive days, and 0.2 mg for five consecutive days (Figure 1). All volunteers were hospitalized 2 days before the first dosing and placed on a standardized diet during hospitalization. All participants were required to fast overnight before the first dosing.
(§2) Safety assessments were conducted by monitoring physical examinations, vital signs (blood pressure, pulse rate, body temperature and respiratory rate), 12-lead ECG, clinical laboratory assays (blood routine, blood biochemistry and urine routine) and AEs. AEs were evaluated by the investigator throughout the study and the severity of AEs was defined in accordance with the Common Terminology Criteria for the Classification of Adverse Events of the National Cancer Institute (NCI CTCAE) version 5.0.

[3] = design: method as in Chen et al., 2024; conditions: week 16, ref Chen et al., 2024, cited from earlier work
[4] = human, in vivo; cited from earlier work
[5] = tested on: adult subjects with overweight/obesity; conditions: in vivo
Experimental: as §1, §2

[6] = Total, 0.06-0.2 mg sc three times daily

recombinant human GLP-1 (7-36) [beinaglutide]
Estimate of slope β1, Ln (AUC0-inf), proportional dose-response (power model) [1]: 1.01
Estimate of slope β1, Ln (AUC0-t,adj), proportional dose-response (power model) [1]: 1.13
Estimate of slope β1, Ln (Cmax), proportional dose-response (power model) [1]: 1.13
arithmetic mean of CL/Fadj ([1]; sc): 6.81 to 7.66 L/min
arithmetic mean of Vz/Fadj ([1]; sc): 292.55 to 401.87 L
arithmetic mean of t1/2, adj ([1]; sc): 29.64 to 42.35 min
median of Tmax ([1]; sc): 10 to 15 min
median of Tmax,adj ([1]; sc): 10 to 15 min
AEs leading to death, % of subjects with event ([2]; 0.06 mg sc three times daily): 0.0%
AEs leading to death, E (number of events) ([2]; 0.06 mg sc three times daily): 0
AEs leading to death, n (subjects with event) ([2]; 0.06 mg sc three times daily): 0
Drug-related AEs leading to death, % of subjects with event ([2]; 0.06 mg sc three times daily): 0.0%
Drug-related AEs leading to death, E (number of events) ([2]; 0.06 mg sc three times daily): 0
Drug-related AEs leading to death, n (subjects with event) ([2]; 0.06 mg sc three times daily): 0
AEs leading to death, % of subjects with event ([2]; 0.1 mg sc three times daily): 0.0%
AEs leading to death, E (number of events) ([2]; 0.1 mg sc three times daily): 0
AEs leading to death, n (subjects with event) ([2]; 0.1 mg sc three times daily): 0
Drug-related AEs leading to death, % of subjects with event ([2]; 0.1 mg sc three times daily): 0.0%
Drug-related AEs leading to death, E (number of events) ([2]; 0.1 mg sc three times daily): 0
Drug-related AEs leading to death, n (subjects with event) ([2]; 0.1 mg sc three times daily): 0
AEs leading to death, % of subjects with event ([2]; 0.14 mg sc three times daily): 0.0%
AEs leading to death, E (number of events) ([2]; 0.14 mg sc three times daily): 0
AEs leading to death, n (subjects with event) ([2]; 0.14 mg sc three times daily): 0
Drug-related AEs leading to death, % of subjects with event ([2]; 0.14 mg sc three times daily): 0.0%
Drug-related AEs leading to death, E (number of events) ([2]; 0.14 mg sc three times daily): 0
Drug-related AEs leading to death, n (subjects with event) ([2]; 0.14 mg sc three times daily): 0
AEs leading to death, % of subjects with event ([2]; 0.2 mg sc three times daily): 0.0%
AEs leading to death, E (number of events) ([2]; 0.2 mg sc three times daily): 0
AEs leading to death, n (subjects with event) ([2]; 0.2 mg sc three times daily): 0
Drug-related AEs leading to death, % of subjects with event ([2]; 0.2 mg sc three times daily): 0.0%
Drug-related AEs leading to death, E (number of events) ([2]; 0.2 mg sc three times daily): 0
Drug-related AEs leading to death, n (subjects with event) ([2]; 0.2 mg sc three times daily): 0
AEs leading to death, % of subjects with event [2, 6]: 0.0%
AEs leading to death, E (number of events) [2, 6]: 0
AEs leading to death, n (subjects with event) [2, 6]: 0
Drug-related AEs leading to death, % of subjects with event [2, 6]: 0.0%
Drug-related AEs leading to death, E (number of events) [2, 6]: 0
Drug-related AEs leading to death, n (subjects with event) [2, 6]: 0
mean weight reduction ([3]; female participants): −6.9%
mean weight reduction ([3]; male participants): −4.7%
apparent volume of distribution (Vz/F) [4]: 379 L
time to relief of nausea [5]: ≤ 1 h
